B1: biotinylated synthetic thrombospondin peptide from the cell binding domain of human Thrombospondin1 (peptide)
peptide: RFYVVMWKXXK
modifications: Aca-Aca (amino caproic acid) after Lys8; C-terminal Lys-Biotin
notes: Immobilised through its C-terminal biotin on avidin (ELISA) or streptavidin chip (SPR)

Assays:
[1] = biological target: T1, original hNGAL with C-terminal Strep-Tag II (encoded by phNGAL15, purified) (human, UniProt P80188 21-198); test: ELISA: biotinylated thrombospondin peptide on avidin-coated wells, hNGAL titrated, anti-strepII-antibody-HRP detection, A450
T1 construct: mature
Protocol: For the detection of binding in an ELISA (Enzyme-linked Immunosorbent Assay) the wells of a microtiter plate (Maxisorb, Nunc) were filled each with 50 μl of a 50 μg/ml solution of Avidin (Fluka) in PBS and were incubated over night at room temperature (RT). After washing three times with PBST, 50 μl of a 1 μM solution of the biotinylated thrombospondin peptide SEQ ID NO:18 in PBST were filled into the wells and the peptide was immobilized via complex formation between biotin and the preadsorbed avidin. After incubation for one hour the solution was removed and the wells of the microtiter plate were washed three times with PBST. In order to saturate unspecific binding sites, the wells were filled with 100 μl of 4% w/v BSA in PBST and incubated for one hour at RT, followed by three times washing with PBST. […]
(§1) Detection of bound hNGAL muteins was accomplished using 3,3′,5,5′-tetramethylbenzidine and H₂O₂ as substrates for horseradish-peroxidase. For this purpose, 100 μl of a ready-to-use HRP-substrate solution (Biochem Immunosystems) was filled into the wells and the colour development was stopped after a few minutes by adding 100 μl of 0.3 M sulphuric acid. Product formation was measured via the endpoint absorption at 450 nm in a SpectraMax 250 photometer (Molecular Devices).

[2] = biological target: T2, recombinant human cytokine interleukin-8 (Promocell) (human, UniProt P10145 23-99, biotin groups on lysine residues (NHS-SS-Biotin) in the ELISA; digoxigenin groups (DIG-NHS) in the colony screening); test: ELISA, apparent KD, biotinylated IL-8 on avidin-coated plate, anti-strepII-antibody-HRP
T2 construct: also called IL-8
T2 sequence: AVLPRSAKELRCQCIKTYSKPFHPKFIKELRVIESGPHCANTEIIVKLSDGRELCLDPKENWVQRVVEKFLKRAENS
Protocol: (§2) For the detection of binding in an ELISA experiment two rows (12 wells each) of a 96 microtiter plate (Maxisorb, Nunc) were coated with 50 μl of a 50 μg/ml solution of Avidin (Fluka) in PBS overnight at 4° C. After washing three times with PBST, one row was treated with 50 μl/well of a 1 μM solution of biotinylated IL-8 in PBST, whereas the second row was incubated with PBST as a control. After 1 hour at RT, all wells were washed three times with PBST and unspecific binding sites were saturated with 100 μl of 4% w/v skimmed milk powder in PBST for 1 hour at RT.
(§3) As a control for unspecific binding to avidin, a similar dilution series of the mutein N4 was applied to wells where the IL-8 had been omitted. Complex formation was allowed for 1 hour at RT, followed by three washes with PBST and incubation at RT for 1 hour with anti-strepII-antibody-HRP-conjugate (IBA) diluted 1:8000 in PBST.
as §1, with “mutein N4” for “hNGAL muteins”, “purpose, all wells were filled with” for “purpose,”, “Immunosystems). The” for “Immunosystems) was filled into the wells and the”, “via” for “via the”

[3] = biological target: Avidin (Fluka) (UniProt P02701 25-152); test: ELISA control without IL-8: avidin-coated wells only, mutein N4 titrated, anti-strepII-antibody-HRP detection, OD450
Chain of Avidin (Fluka) (P02701 25-152 limits assumed): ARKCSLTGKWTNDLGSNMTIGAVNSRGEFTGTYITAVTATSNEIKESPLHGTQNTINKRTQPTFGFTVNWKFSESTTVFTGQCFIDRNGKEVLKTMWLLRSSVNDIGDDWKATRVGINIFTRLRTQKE
Protocol: as §2, §3
as §1, with “mutein N4” for “hNGAL muteins”, “purpose, all wells were filled with” for “purpose,”, “Immunosystems). The” for “Immunosystems) was filled into the wells and the”, “via” for “via the”

[4] = biological target: B1; test: SPR, BIAcore X, steady state, biotinylated peptide on sensor chip SA
Protocol: The binding affinity of the hNGAL muteins to the thrombospondin peptide SEQ ID NO: 18 was determined by surface plasmon resonance (SPR) using the BIAcore X system (BIACORE). First 35 μl of the biotinylated thrombospondin peptide at a concentration of 1 μg/ml (prepared by mixing 1 μl of a 200 μg/ml peptide solution in DMF with 199 μl HBS buffer containing 150 mM NaCl, 10 mM HEPES pH 7.4, 3 mM EDTA) was immobilized to the surface of one flow channel of a streptavidin-coated sensor chip SA (BIACORE) according to the instructions of the manufacturer, resulting in an amount of ca. 400 response units (RU). Binding curves of the hNGAL muteins were then measured by applying 35 μl of each purified muteins from Example 9 in HBS buffer at concentrations between 500 nM and 25 nM using HBS-EP (HBS containing 0.005% Surfactant P20) as a running buffer and a continuous flowrate of 5 μl/min.
Steady state resonance values were measured at the end of the injection phase for the channel with the immobilized thrombospondin peptide for each protein concentration applied. Only negligible buffer effects were detected in the second channel of the sensor chip, which served as a control. These values were directly plotted against the concentration of the hNGAL mutein. […]

[5] = biological target: streptavidin of the streptavidin-coated sensor chip SA (BIACORE) (UniProt P22629 37-163, limits assumed); test: SPR, BIAcore X, streptavidin-coated sensor chip SA
Chain of streptavidin of the streptavidin-coated sensor chip SA (BIACORE) (P22629 37-163 limits assumed): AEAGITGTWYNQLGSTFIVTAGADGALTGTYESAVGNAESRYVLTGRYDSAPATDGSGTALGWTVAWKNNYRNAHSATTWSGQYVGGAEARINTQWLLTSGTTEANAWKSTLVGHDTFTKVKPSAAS

[6] = biological target: B1; test: ELISA, apparent KD, biotinylated peptide on avidin-coated plate, anti-strepII-antibody-HRP
Protocol: For the detection of binding in an ELISA (Enzyme-linked Immunosorbent Assay) the wells of a microtiter plate (Maxisorb, Nunc) were filled each with 50 μl of a 50 μg/ml solution of Avidin (Fluka) in PBS and were incubated over night at room temperature (RT). After washing three times with PBST, 50 μl of a 1 μM solution of the biotinylated thrombospondin peptide SEQ ID NO:18 in PBST were filled into the wells and the peptide was immobilized via complex formation between biotin and the preadsorbed avidin. After incubation for one hour the solution was removed and the wells of the microtiter plate were washed three times with PBST. In order to saturate unspecific binding sites, the wells were filled with 100 μl of 4% w/v BSA in PBST and incubated for one hour at RT, followed by three times washing with PBST.
Then a dilution series of the muteins from Example 9 was prepared, starting from 100 nM concentration, and followed by 1 hour incubation at RT. As a control for unspecific binding to avidin, a similar dilution series of hNGAL and its muteins was applied to wells where the thrombospondin peptide had been omitted. After washing three times with PBST, Anti-strepII-antibody-HRP-conjugate (IBA), diluted 1:8000 with PBST, was applied to the wells. Incubation was performed for 1 hour at RT and followed by washing three times with PBST and twice with PBS. […]

Binder | binding result [1] | Kd [2] | binding result [3] | Kd [4] | binding result [5] | Kd [6]
B1 | no binding (tested: 200 nM) | – | – | – | – | –
hNGAL mutein N4 with C-terminal Strep-Tag II (phNGAL15 derivative, purified) (designed binder, not shown: small tags and cut ends) QDSTSDLIPAPPLSKVPLQQNFQDNQFQGKWYLVGLAGNDIYRADSLPGLMYATIYELKEDKSYNVTSVVFYDKKCVYSIRTFVPGSQPGEFTLGNIKSYEAVTSFLVRVVSTNYNQHAMVFFKDVRPNSEEFKITIYGRTKELPSELKENFIRFSKSLGLPENHIVFPVPIDQCIDG | – | 300 nM | no binding (tested: 1000 nM) | – | – | –
hNGAL mutein RFY-C with C-terminal Strep-Tag II (phNGAL15 derivative, purified) (designed binder, not shown: small tags and cut ends) QDSTSDLIPAPPLSKVPLQQNFQDNQFQGKWYLVGLAGNGIHRLDNVPPNMYATIYELKEDKSYNVTSVDFLMKKCPYFIRTFVPGSQPGEFTLGNIKSYPFLTSFLVRVVSTNYNQHAMVFFKNVPRNYEEFKITIYGRTKELPSELKENFIRFSKSLGLPENHIVFPVPIDQCIDG | – | – | – | 106 nM | no binding | 4.6 nM
hNGAL mutein RFY-E with C-terminal Strep-Tag II (phNGAL15 derivative, purified) (designed binder, not shown: small tags and cut ends) QDSTSDLIPAPPLSKVPLQQNFQDNQFQGKWYLVGLAGNGITRVDTLPSRMYATIYELKEDKSYNVTSVPFMGKKCKYKIRTFVPGSQPGEFTLGNIKSYMSNTSFLVRVVSTNYNQHAMVFFKQVHKNPESFKITIYGRTKELPSELKENFIRFSKSLGLPENHIVFPVPIDQCIDG | – | – | – | 107 nM | no binding | 8.2 nM
